In ChEMBL document CHEMBL1142227, “Structural basis for the high all-trans-retinaldehyde reductase activity of the tumor marker AKR1B10” (Proc Natl Acad Sci U S A, 2007):
Blank lines part the entries; values can stand above or below the molecule they belong to.

Assays:
[1] = tested on: O=CC(O)CO; assay: (§1) Activity of human AKR1B10 V301L mutant by BSA/HPLC method
[2] = tested on: CC1=C(/C=C/C(C)=C\C=C\C(C)=C\C=O)C(C)(C)CCC1; assay: as §1
[3] = tested on: CC1=C(/C=C/C(C)=C/C=C/C(C)=C/C=O)C(C)(C)CCC1; assay: as §1
[4] = tested on: O=CC(O)CO; assay: (§2) Ratio of Kcat to Km for human AKR1B10 V301L mutant
[5] = tested on: CC1=C(/C=C/C(C)=C\C=C\C(C)=C\C=O)C(C)(C)CCC1; assay: as §2
[6] = tested on: CC1=C(/C=C/C(C)=C/C=C/C(C)=C/C=O)C(C)(C)CCC1; assay: as §2
[7] = molecular target: Aldo-keto reductase family 1 member B10 (Homo sapiens) (UniProt O60218); assay: Inhibition of retinaldehyde reductase activity of human AKR1B10 expressed in COS7 cells at 1 uM relative to control; assay type: cell-based; parameters: scale not given: the % may be the effect or the level left; conditions: COS-7
Sequence of Aldo-keto reductase family 1 member B10 (Homo sapiens) (O60218 whole entry, looked up): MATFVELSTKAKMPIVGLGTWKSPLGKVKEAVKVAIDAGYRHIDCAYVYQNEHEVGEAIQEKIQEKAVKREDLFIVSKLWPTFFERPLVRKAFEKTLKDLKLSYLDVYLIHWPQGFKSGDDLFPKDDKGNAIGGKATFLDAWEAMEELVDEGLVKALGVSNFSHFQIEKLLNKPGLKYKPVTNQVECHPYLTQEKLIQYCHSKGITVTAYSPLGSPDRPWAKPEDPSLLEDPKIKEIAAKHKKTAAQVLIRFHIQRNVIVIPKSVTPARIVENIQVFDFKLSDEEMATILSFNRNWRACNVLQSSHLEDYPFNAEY

[8] = tested on: O=CC(O)CO; assay: (§3) Activity of human AKR1B10 K125L/V301L mutant by BSA/HPLC method
[9] = tested on: CC1=C(/C=C/C(C)=C/C=C/C(C)=C/C=O)C(C)(C)CCC1; assay: as §3
[10] = tested on: O=CC(O)CO; assay: (§4) Ratio of Kcat to Km for human AKR1B10 K125L/V301L mutant
[11] = tested on: CC1=C(/C=C/C(C)=C/C=C/C(C)=C/C=O)C(C)(C)CCC1; assay: as §4
[12] = tested on: O=CC(O)CO; assay: (§5) Activity of human wild type AKR1B10 by BSA/HPLC method
[13] = tested on: CC1=C(/C=C/C(C)=C\C=C\C(C)=C\C=O)C(C)(C)CCC1; assay: as §5
[14] = tested on: CC1=C(/C=C/C(C)=C/C=C/C(C)=C/C=O)C(C)(C)CCC1; assay: as §5
[15] = tested on: O=CC(O)CO; assay: (§6) Ratio of Kcat to Km for human wild type AKR1B10
[16] = tested on: CC1=C(/C=C/C(C)=C\C=C\C(C)=C\C=O)C(C)(C)CCC1; assay: as §6
[17] = tested on: CC1=C(/C=C/C(C)=C/C=C/C(C)=C/C=O)C(C)(C)CCC1; assay: as §6
[18] = tested on: CC1=C(/C=C/C(C)=C/C=C/C(C)=C/C=O)C(C)(C)C[C@@H](O)C1; assay: (§7) Activity of human wild type AKR1B10 by Tween 80 / spectrophotometer method
[19] = tested on: CC1=C(/C=C/C(C)=C/C=C/C(C)=C/C=O)C(C)(C)CCC1; assay: as §7
[20] = tested on: O=CC(O)CO; assay: (§8) Activity of human AKR1B1 by BSA/HPLC method
[21] = tested on: CC1=C(/C=C/C(C)=C\C=C\C(C)=C\C=O)C(C)(C)CCC1; assay: as §8
[22] = tested on: CC1=C(/C=C/C(C)=C/C=C/C(C)=C/C=O)C(C)(C)CCC1; assay: as §8
[23] = tested on: O=CC(O)CO; assay: (§9) Ratio of Kcat to Km for human AKR1B1
[24] = tested on: CC1=C(/C=C/C(C)=C\C=C\C(C)=C\C=O)C(C)(C)CCC1; assay: as §9
[25] = tested on: CC1=C(/C=C/C(C)=C/C=C/C(C)=C/C=O)C(C)(C)CCC1; assay: as §9
[26] = tested on: CC1=C(/C=C/C(C)=C/C=C/C(C)=C/C=O)C(C)(C)C[C@@H](O)C1; assay: (§10) Activity of human AKR1B1 by Tween 80 / spectrophotometer method
[27] = tested on: CC1=C(/C=C/C(C)=C/C=C/C(C)=C/C=O)C(C)(C)CCC1; assay: as §10
[28] = tested on: O=CC(O)CO; assay: (§11) Ratio of Kcat to Km for human AKR1B10 K125L mutant
[29] = tested on: CC1=C(/C=C/C(C)=C\C=C\C(C)=C\C=O)C(C)(C)CCC1; assay: as §11
[30] = tested on: CC1=C(/C=C/C(C)=C/C=C/C(C)=C/C=O)C(C)(C)CCC1; assay: as §11
[31] = tested on: CC1=C(/C=C/C(C)=C/C=C/C(C)=C/C=O)C(C)(C)C[C@@H](O)C1; assay: (§12) Activity of human AKR1B10 K125L mutant by Tween 80 / spectrophotometer method
[32] = tested on: CC1=C(/C=C/C(C)=C/C=C/C(C)=C/C=O)C(C)(C)CCC1; assay: as §12
[33] = tested on: O=CC(O)CO; assay: (§13) Activity of human AKR1B10 K125L mutant by BSA/HPLC method
[34] = tested on: CC1=C(/C=C/C(C)=C\C=C\C(C)=C\C=O)C(C)(C)CCC1; assay: as §13
[35] = tested on: CC1=C(/C=C/C(C)=C/C=C/C(C)=C/C=O)C(C)(C)CCC1; assay: as §13

Sequence of Aldo-keto reductase family 1 member B10 (Homo sapiens), O60218 (O60218 whole entry): as the sequence (O60218 whole entry, looked up) above
Sequence of Aldo-keto reductase family 1 member B10 (Homo sapiens), O60218 K125L,V301L (O60218 whole entry K125L/V301L): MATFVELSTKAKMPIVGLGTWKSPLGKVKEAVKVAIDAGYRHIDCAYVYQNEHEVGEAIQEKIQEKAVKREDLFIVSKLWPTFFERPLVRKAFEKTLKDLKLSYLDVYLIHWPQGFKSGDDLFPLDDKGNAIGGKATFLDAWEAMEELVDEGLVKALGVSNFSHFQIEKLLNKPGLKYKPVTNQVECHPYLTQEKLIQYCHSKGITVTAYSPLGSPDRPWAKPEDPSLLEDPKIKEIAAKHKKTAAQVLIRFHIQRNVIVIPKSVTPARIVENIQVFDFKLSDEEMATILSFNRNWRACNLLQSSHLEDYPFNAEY
Sequence of Aldo-keto reductase family 1 member B10 (Homo sapiens), O60218 V301L (O60218 whole entry V301L): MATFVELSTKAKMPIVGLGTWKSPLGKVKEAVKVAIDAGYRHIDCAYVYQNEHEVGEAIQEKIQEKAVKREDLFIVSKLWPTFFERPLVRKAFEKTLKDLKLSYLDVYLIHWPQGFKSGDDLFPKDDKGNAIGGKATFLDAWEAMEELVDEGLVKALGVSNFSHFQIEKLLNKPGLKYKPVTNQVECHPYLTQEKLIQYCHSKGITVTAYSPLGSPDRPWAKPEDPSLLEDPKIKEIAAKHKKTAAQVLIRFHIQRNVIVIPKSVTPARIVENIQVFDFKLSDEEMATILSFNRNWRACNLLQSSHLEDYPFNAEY
Sequence of Aldo-keto reductase family 1 member B10 (Homo sapiens), O60218 K125L (O60218 whole entry K125L): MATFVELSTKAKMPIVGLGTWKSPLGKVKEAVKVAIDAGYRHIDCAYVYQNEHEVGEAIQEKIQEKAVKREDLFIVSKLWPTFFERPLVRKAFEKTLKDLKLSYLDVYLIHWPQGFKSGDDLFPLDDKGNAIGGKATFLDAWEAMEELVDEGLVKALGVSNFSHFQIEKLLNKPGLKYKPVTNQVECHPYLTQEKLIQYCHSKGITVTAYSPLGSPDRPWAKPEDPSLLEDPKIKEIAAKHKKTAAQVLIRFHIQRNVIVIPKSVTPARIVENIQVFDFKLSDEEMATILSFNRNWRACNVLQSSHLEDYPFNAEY

Molecule: Aldo-keto reductase family 1 member B10 (Homo sapiens), O60218 V301L
- Km [1]: 6000 µM
- kcat [1]: 0.683 s⁻¹
- Km [2]: 0.3 µM
- kcat [2]: 0.01 s⁻¹
- Km [3]: 0.6 µM
- kcat [3]: 0.128 s⁻¹
- kcat/Km [4]: 117 M⁻¹ s⁻¹
- kcat/Km [5]: 30000 M⁻¹ s⁻¹
- kcat/Km [6]: 212000 M⁻¹ s⁻¹

- Activity [7]: 50%
Molecule: COc1ccc2c(C(=S)N(C)CC(=O)O)cccc2c1C(F)(F)F

Molecule: Aldo-keto reductase family 1 member B10 (Homo sapiens), O60218 K125L,V301L
- Km [8]: 7300 µM
- kcat [8]: 0.59 s⁻¹
- Km [9]: 1 µM
- kcat [9]: 0.0583 s⁻¹
- kcat/Km [10]: 81.7 M⁻¹ s⁻¹
- kcat/Km [11]: 58300 M⁻¹ s⁻¹

Molecule: Aldo-keto reductase family 1 member B10 (Homo sapiens), O60218
- Km [12]: 6000 µM
- kcat [12]: 0.583 s⁻¹
- Km [13]: 0.7 µM
- kcat [13]: 0.015 s⁻¹
- Km [14]: 0.6 µM
- kcat [14]: 0.45 s⁻¹
- kcat/Km [15]: 100 M⁻¹ s⁻¹
- kcat/Km [16]: 21700 M⁻¹ s⁻¹
- kcat/Km [17]: 750000 M⁻¹ s⁻¹
- kcat [18]: 0.288 s⁻¹
- kcat [19]: 0.297 s⁻¹

Molecule: Aldo-keto reductase family 1 member B1 (Homo sapiens) (from UniProt P15121)
- Km [20]: 50 µM
- kcat [20]: 0.517 s⁻¹
- Km [21]: 0.4 µM
- kcat [21]: 0.0117 s⁻¹
- Km [22]: 1.1 µM
- kcat [22]: 0.00583 s⁻¹
- kcat/Km [23]: 11000 M⁻¹ s⁻¹
- kcat/Km [24]: 25000 M⁻¹ s⁻¹
- kcat/Km [25]: 5330 M⁻¹ s⁻¹
- kcat [26]: 0.0967 s⁻¹
- kcat [27]: 0.00617 s⁻¹

Molecule: Aldo-keto reductase family 1 member B10 (Homo sapiens), O60218 K125L
- kcat/Km [28]: 117 M⁻¹ s⁻¹
- kcat/Km [29]: 21700 M⁻¹ s⁻¹
- kcat/Km [30]: 218000 M⁻¹ s⁻¹
- kcat [31]: 0.308 s⁻¹
- kcat [32]: 0.0733 s⁻¹
- Km [33]: 5200 µM
- kcat [33]: 0.593 s⁻¹
- Km [34]: 0.7 µM
- kcat [34]: 0.015 s⁻¹
- Km [35]: 0.15 µM
- kcat [35]: 0.0333 s⁻¹
